# Article doi:10.1101/2020.05.13.093591
# Molecular target: PfPDI8 (PF3D7_0827900), 3xV5-tagged at the endogenous locus (P. falciparum (3D7))
# Assay: cross-linking + co-IP
substance,measurement,value
"PfBiP, the Hsp70 Binding immunoglobulin Protein (natural protein)",fold increase of co-immunoprecipitated PfBiP with DVSF against without DVSF,2 fold
